We go through ten molecules from publication PMC9508527, “Two-component carnitine monooxygenase from Escherichia coli: functional characterization, inhibition and mutagenesis of the molecular interface” (Bioscience Reports, 2022).

Changes are numbered by the printed parent chain. Numbers in names are those of the source. Read-outs that look alike come from different tables or passages of the source.

In general, IC50 refers to the concentration needed to halve the response being measured. High values mean weaker potency in that assay, low ones greater potency in that assay. As a reminder, the stoichiometry N is the number of molecules, sites or subunits per partner or assembly.

In data set [1] the target is T1, YeaW (carnitine monooxygenase oxygenase component) (Escherichia coli, UniProt P0ABR7).
T1 construct: N-terminal strep tag II fusion; with YeaX
T1 sequence (P76254 whole entry, one chain of several, the tested form may be a part): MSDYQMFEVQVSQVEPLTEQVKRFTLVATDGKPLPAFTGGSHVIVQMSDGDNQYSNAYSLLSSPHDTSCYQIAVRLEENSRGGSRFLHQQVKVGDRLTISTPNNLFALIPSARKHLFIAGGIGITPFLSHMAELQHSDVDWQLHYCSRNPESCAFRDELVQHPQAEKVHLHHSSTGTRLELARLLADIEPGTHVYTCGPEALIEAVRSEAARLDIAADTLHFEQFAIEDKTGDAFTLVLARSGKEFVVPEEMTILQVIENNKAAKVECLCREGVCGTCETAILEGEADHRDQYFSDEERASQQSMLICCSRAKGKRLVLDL
Nature of the data set: L-carnitine depletion assay with purified YeaX/YeaW; slow conversion to TMA also shown by GC-MS. In kind it is biochemical.

Data set [2] deals with T2, CntA (carnitine monooxygenase oxygenase component) (Acinetobacter baumannii, UniProt D0C9N6).
T2 construct: with CntB (homologous system) or YeaX (chimeric system)
T2 sequence (D0C9N6 whole entry): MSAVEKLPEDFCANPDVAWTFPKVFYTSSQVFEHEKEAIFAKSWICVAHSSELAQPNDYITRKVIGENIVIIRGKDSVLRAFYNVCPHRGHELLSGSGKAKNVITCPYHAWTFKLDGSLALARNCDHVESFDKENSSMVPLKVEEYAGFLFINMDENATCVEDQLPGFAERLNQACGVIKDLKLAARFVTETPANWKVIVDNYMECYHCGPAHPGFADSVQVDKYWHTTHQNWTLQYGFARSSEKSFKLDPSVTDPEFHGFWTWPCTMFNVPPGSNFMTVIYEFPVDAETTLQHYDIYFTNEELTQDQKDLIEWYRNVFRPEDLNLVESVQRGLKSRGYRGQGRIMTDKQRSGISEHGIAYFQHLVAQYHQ
Nature of the data set: L-carnitine depletion assay with purified proteins. In kind it is biochemical.

Data set [3] concerns the target T1, YeaW (carnitine monooxygenase oxygenase component). The data set can be described thus: L-carnitine depletion and O2 depletion assays with purified proteins. Type of data set: biochemical.
Data set [4] deals with the molecule itself. Nature of the data set: SEC; analytical gel filtration, Superdex 200 increase 5/150 GL, 10 mM Hepes-NaOH pH 7.5, 150 mM NaCl, 0.45 ml min^-1, 20 µl samples (~300 µM), calibrated with protein standards. Background: SEC sorts molecules by how far they enter the pores of the column.
Data set [5] has as its target T3, YeaW, Rieske-type oxygenase component of carnitine monooxygenase from E. coli (E. coli) (UniProt P0ABR7).
T3 sequence: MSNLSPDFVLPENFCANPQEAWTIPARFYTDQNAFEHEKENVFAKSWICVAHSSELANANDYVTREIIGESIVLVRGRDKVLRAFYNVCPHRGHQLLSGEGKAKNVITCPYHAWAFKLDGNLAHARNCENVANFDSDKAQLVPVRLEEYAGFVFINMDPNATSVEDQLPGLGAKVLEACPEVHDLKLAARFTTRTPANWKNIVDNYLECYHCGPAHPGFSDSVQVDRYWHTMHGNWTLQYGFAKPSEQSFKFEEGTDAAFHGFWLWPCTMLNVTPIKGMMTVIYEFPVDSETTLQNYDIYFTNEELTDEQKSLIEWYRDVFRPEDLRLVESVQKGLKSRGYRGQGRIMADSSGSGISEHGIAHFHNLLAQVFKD

Data set [6] deals with T3, YeaW, Rieske-type oxygenase component of carnitine monooxygenase from E. coli (E. coli). This is another data set of the same source.
The target is the same in data set [7]. This is another data set of the same source.
The target is the same in data set [8]. The source holds these as a separate data set.

`C[N+](C)(C)NCCC(=O)[O-]` [meldonium] returned an IC50 in data set [1] of 612 ± 68 µM. On to `C[N+](C)(C)C[C@H](O)CC(=O)[O-]` [L-carnitine], for which the “L-carnitine depletion assay with purified proteins” value in data set [2] stood at 353 ± 68 nmol/min/mg. Further, the “L-carnitine depletion and O2 depletion assays with purified proteins” value in data set [3] came to 1288 ± 48 nmol/min/mg.

B1: YeaW, Rieske-type oxygenase component of carnitine monooxygenase from E. coli (enzyme, UniProt P0ABR7 1-374, looked up)
chain: T3 sequence
notes: primers run from the start to the stop codon; No cleavage of the tag is described; calculated molecular mass 45,463 Da; Carries a Rieske-type [2Fe-2S] cluster and a mononuclear [Fe] center; also called oxygenase YeaW; catalytic unit YeaW
For the molecule B1, in data set [4], the “stoichiometry N” value was 3.

B2: CntB, reductase component of carnitine monooxygenase from Acinetobacter baumannii (enzyme)
chain: MASHYEMFPAVVTRVEQLTPLIKRFTFKRQDGQNFPRFSGGSHIIVKMNEQLSNAYSLMSCTQDLSTYQVCVRKDVEGKGGSVFMHDQCNEGCEIQISEPKNLFPLAETGNKHILIAGGIGITPFLPQMDELAARGAEYELHYAYRSPEHAALLDELTQKHAGHVFSYVDSEGSMLNLDELISSQPKGTHVYVCGPKPMIDAVIDCCNKHRYRDEYIHWEQFASTVPEDGEAFTVVLAKSNQEIEVQSNQTILQAIETLNIDVECLCREGVCGTCETAILEGEAEHFDQYLSDAEKASQKSMMICVSRAKGKKLVLDL
For the molecule B2, in data set [5], the Relative L-carnitine depletion activity of the chimeric enzyme (YeaX/YeaW = 100%) came out at 20% and the Relative O2 depletion activity of the chimeric enzyme (YeaX/YeaW = 100%) came out at 4%.

B3: YeaX variant K313Q (enzyme)
chain: MSDYQMFEVQVSQVEPLTEQVKRFTLVATDGKPLPAFTGGSHVIVQMSDGDNQYSNAYSLLSSPHDTSCYQIAVRLEENSRGGSRFLHQQVKVGDRLTISTPNNLFALIPSARKHLFIAGGIGITPFLSHMAELQHSDVDWQLHYCSRNPESCAFRDELVQHPQAEKVHLHHSSTGTRLELARLLADIEPGTHVYTCGPEALIEAVRSEAARLDIAADTLHFEQFAIEDKTGDAFTLVLARSGKEFVVPEEMTILQVIENNKAAKVECLCREGVCGTCETAILEGEADHRDQYFSDEERASQQSMLICCSRAQGKRLVLDL
In data set [6], B3 displayed a residual L-carnitine depletion activity (wild type = 100%) of 30% and a residual O2 depletion activity (wild type = 100%) of 30%.

B4: YeaX variant D320K (enzyme)
chain: B3 chain with Q313K, D320K
Turning to B4, in data set [7], the residual L-carnitine depletion activity (wild type = 100%) was determined as 3% and the residual O2 depletion activity (wild type = 100%) was 7%.

B5: YeaX variant R271Q (enzyme)
chain: B3 chain with R271Q, Q313K
Take B5: in data set [8], the residual L-carnitine depletion activity (wild type = 100%) was 4% and the residual O2 depletion activity (wild type = 100%) came out at 11%.

B6: YeaX variant R271K (enzyme)
chain: B3 chain with R271K, Q313K
As to B6, in data set [8], the residual L-carnitine depletion activity (wild type = 100%) is 80% and the residual O2 depletion activity (wild type = 100%) is 70%.

B7: YeaX variant K313E (enzyme)
chain: B3 chain with Q313E
On to B7, for which, in data set [6], the residual L-carnitine depletion activity (wild type = 100%) amounted to 7% and the residual O2 depletion activity (wild type = 100%) came to 11%.

B8: YeaX variant D320N (enzyme)
chain: B3 chain with Q313K, D320N
In data set [7], B8 had a L-carnitine depletion activity (wild type = 100%) of 9% and an O2 depletion activity (wild type = 100%) of 11%.
